Reference: a protein production outcome set (Wang et al. 2014)

Experiment: label from the status in PepcDB records

Sequence | protein production
MSQILTITFPIYAALAVGFLVVRQGWFSSADMRVLGRYVMDIALPALLFNAVASRDVAEVFHPGYMLAFAAAGLATVALSYLWFTLTGTEARRRAVAVMGSSCPNSGFVGYPVMLLTFPDLAGVILALNMLVENVLIIPACLILTDMARGRGQGGIGQRIAGILWGVLKRPMVIGLLLGLAVSLAGVPVPQTVTRLMQMLAASASALALVVIGGSLAGLSWKGSRWHAVQISALKLLLHPALALLAVILVAAIGLPLDPDMGTALILSAAMPMFGIYAVLAQELGHEGMASIALLTATTLAFFTLSGLLWWLT | failed
MTENGRYEYIVIGSEAAGVGLVRELTAAGKKVLAVDKSKEKIELLEDEGFDAVIADPTDESFYRSLDLEGVSAVLITGSDDEFNLKILKALRSVSDVYAIVRVSSPKKKEEFEEAGANLVVLVADAVKQAFMDKIKKMETLKKIEKLKRIMESLRGKRLGIFTHDNPDPDSMSSAYALREIAKQFDVIADILYYGEILHQKNRAMVNLLEIPMIRAPEVDLSHYDAFAIVDSSGPGVNNSIPPDIDISIVIDHHPAEKVVAEFVDLREDVGATATILTEYIKELKITPSKILATALFFGIKSETDEFKRNTRTADFLACAFLYPFVDQDLIEKIESPSISTETLDILGTAIKNRQVYSSFLISFAGFINDRDALPQAADFLLKLEGISTVVVFGVIKDTVYVSARNKDVRIHMGEVLRRAFGDVGSAGGHAHAAGAQIPLGIFGETNEKDLLAKLITEAITKRLLSAVGMEQS | failed
MKLTLKNLSMAIMMSTIVMGSSAMAADSNEKIVIAHRGASGYLPEHTLPAKAMAYAQGADYLEQDLVMTKDDNLVVLHDHYLDRVTDVADRFPDRARKDGRYYAIDFTLDEIKSLKFTEGFDIENGKKVQTYPGRFPMGKSDFRVHTFEEEIEFVQGLNHSTGKNIGIYPEIKAPWFHHQEGKDIAAKTLEVLKKYGYTGKDDKVYLQCFDADELKRIKNELEPKMGMELNLVQLIAYTDWNETQQKQPDGSWVNYNYDWMFKPGAMKQVAEYADGIGPDYHMLIEETSQPGNIKLTGMVQDAQQNKLVVHPYTVRSDKLPEYTPDVNQLYDALYNKAGVNGLFTDFPDKAVKFLNKE | not failed
MELFGSFAFFGGALFGGLGLLLYRALGLPWRLGYRHLIGALCLAVWLAVFWTRPYQPLGLLAVASAALWAMRRGYLPTWAAVLLTMAPLLLLKCGITTMTGMLGLSFATFRAVDVLLFAPRNERISPLDYCIYLFFPLTLLAGPMYRWRNFQADLKRGYEGVTLETWLAGLELLIFGVIQKFGVAEAIWRYGLNTLDAHDYSLTGVALNASLYSFYLFFDFAGYSSMAIGVGMLFGFTLPVNFRNPLASANPQDFWRRWHISLSEWLRDVVFMPIYKALSKTAFFGRHRLAAQNIGILATLLAMGVWNGLALHYVVSGLMFGAYSVGHNLLVQHARTRPALQAFLARRPVQWAGRALTLILAALALYVFSGRSPI | failed
MLVRLTMICNGATAATRRGSFPLDEPLEPRSLTRAKAMRGTLRHADRAWTAPALRARQIAEALSLEAAVEPLLADQDHGSWAGKSFEDVQAEQPGDIAAWLADPDAAPHGGESLADVARRASGLMEKLMAEPGHTIAMTHASVIRTAIVHVLGAPLAACWKIDIEPLSITDFRSDGRRWVLRACGVTSPKAAKPLLR | failed
MSPDSCPLVKNILLLDSEGKRVAVKYYSDDWPTNAAKLSFEKYVFSKTSKTNARTEAEITLLDSNIIVYKFAQDLHFFVTGGENENELILASVLQGFFDAVALLLRSNVEKMEALENLDLIFLCLDEMVDQGVVLETDPNVIAGKVAMQSTEASGSLSEQTLTQALATAREHLARSLLT | failed
MLRHIVLLILLSSEVRGVCNRIPQGASGPRSPVDDNFKILIDGNPETYVPEHQYNVSLSCPINMKFVSFTLVVEAEDPSAAFGGQDMTGHFELLGVGDTRFSTSCENMVENTNTNAKIYIAVSWIAPRNPDSGCVLIKAGVVQHRDVWFLDDGFLTKRICPEEIDELNSLTPPLETCCACDEAKYEIVLERKWARNTHWKDFPSEDWRTRLGEVIGASHSHSYRYWAYGGRASKGMKELAEHGATRTLENEIRENTQNGEVRTIIKAPGIPYRPKTFGTTLANARLDPVHHQISLAAKIDPSPDWILGVAGLELCLSNCTWLERKSSDEPQVPPDVVRRITSSYPSDHRSPFYDDTGAPMKPLATLYLTRKKLYIRECEEVLVPQEGPLECAVHPWNEWTNCSTRCGQGYSHRQRSFKNPNLAANFNCDRRLEEFRQCQGTQCGAAEEELEGEEPGLGMENPPSSGSMAECQLTNWGEWSPCTKTCGRGSSTRTRDYYNPQARQRCLSVMRIPLEETRECIGSDCGGTIPDNGELDGFPEPDVFGETDHGGYMGKTTSWNSKQEHSSLGSGNQAWNRKPYNSWKDKSLSNPRDNAQESPNLPFDQIENPQRPAYNPSDNMGGYDKGFPPTNSYSNDKLVGNRPGYNDFNSDYNNKDAYNDYTTPSFTSRTPFGSRYPNQQETVEGNTNDINGNYNVVQDYCFEKPYASTLPCFAKPVVESNYWFYDHEDHECKIFTTDNCDQNRNRFRTLTACEGTCLQPQINMERSENDAMDLYGRRSYDQKQTRDHISKQEVDPMINQKIGPMTYRQQEVDPMEKPVKQVILENPCRRPGADTTHPDAVGMAAEQIKAFKSPKLEENKY | failed
MKEKVQSPELRFDGFTDGWEQRKFADFIDVKSGKDYKHLNSGSIPVYGTGGYMLSVDRALSDIDAIGFGRKGTIDKPYLLKAPFWTVDTFFYAVPKQNIDLQFSLSIF | failed
MSTIEERTPGAVATEPVGHEGARVSINEKNVWSLGAGPAAFALLAMIVLMIASGVFFAQSINTLENDGGGTLAVTGLIASIVVFTVALVVTITSVKVVSPGHTLTVQFFGRYIGTLRRTGLSFVPPLSVTKKVSVRVRNFETNEAKVNDYNGNPINIAAIIVWQVADTAQASFSVEDFEEFLHQQAESALRHVATQHPYDSPVDGRVSLRGATDEVSEELADEVAQRAAVAGLEIVEARISSLSYAPEIAQAMLQRQQASAIVDAREKIVEGAVTMVETALDQLEQREIVDLDPERRAAMVSNLLVVLCSDTNAQPIVNAGSLYQ | failed
MNRLQGMELFVEVARTLSFGRAAENLAIPKSTLSRQVAELERSVGLRLLSRTTRRVELTEAGQLYFERCQRIVAEARIAHEELQNLVETPSGPLRVNMPADFGTDFLSEAFTEFSRRYPEVTFYLDLASPEHAERVFQTCDVSIEIGDLPDSTHIARLLGVLPAHLYASPDYLARHGEPQHPDDLPRHECIQFRAGTGRVTRWPLNSGERHVEITPGNRFSVNSVSMVRNLATLGAGIAILAPMGNVREDIESGRLKRILPDWLAGPFPVYAVTDTRMLPAKTRIFVEFLMERLSNKTLAGQNNPAFLNLR | failed
MSRRTTLRRVGLLVLGVNLLLVLLKAGVWLTTGSFAVQSEAVNSAADTAYSLVIVAGLYLTTRPPDFEHPHGHERIEPFVSLFVAAGIFAAGGFVLWNAGTALLTGNISVTQGPAAVLVLAFSAVAKYALYRYCLRAGTDRNSPALIATAKDNRNDILTAGAALVGVGGAMAGYPIADPLAALVVAIGIIYTGIEVVQENVTYLVGGAPPEDLRREILRRALDHPKVSGAHDVIAHYVGPEIDVSLHIEVEGDLTLFEAHDIETAVIKSIEELPEVDDAFIHVDPKELGEWKDDEEVERLADLE | failed
MKGITSLGSKWFVEFEKNNVHNVYDRIAEHFTKTRYRIWPGVELFLKQTSPLDTVLDVGCGNGKNLISYRNLFCIGIDRCVPLVKTCKQRQLETAVADILELPFQSEKFDIVLCIAVLHHLCTRERRILAIQELGRVLRPGGSCLLYVWAANENDGKDEVKNTKAREKMRFLDENKQEALIPWVVIDHEKKATQLEKNLKQPSTFTLERYYHLYRQGELEEECLQSNCFHIQHSYYEQSNWCVVLDKKS | not failed
MNINGIKLLSSRAVSKLGDVFYDYGNSTWIASMGGLGQKILGIYQIVELLVSIVLNPFGGALADRFQRRKILLITDAICAIMCFLLSFIGDDKVMVYGLIVANAILAVSNAFSSPAYKSYIPEIVDKADIITYNANLETIVQIISVSSPVLGFLIFNNFGIRITLIVDAITFLISFLFLYAIKVERVQLSKQEKVAIKNILADIADGFTYIKKEKEIMFFLIIAALLNTFLAMFNYLLPFTNSLLKTSGAYATILSISAIGSIIGALIARKIKSSINSMLSMLVFSSLGVIVMGFPSLFELPIWIPYSGSFLFNSLLTMFNIHFFSQVQIRVDEAYMGRVMSTIFTIAIMFMPIGTLFMTIFSFALSNVSFIVIGCAIAILGGLGFSYSKKQF | failed
MSAKIKIIPFGGVRENGKNMYAVDVNGGIYILDCGLKYPENELLGIDVVIPDWTYLRENKDRIVAVFLTHGHADAIGALPYFLSEFNVPVFGSEMTIALAKINVADEPKIKKFDDFHVIDEKTEIDFGDVVVSFFSTTHSIPESLGIDLKTDEGQIIYTGDFKFDQTAKPGYQTDYARLGAIGQAGVLALLSDSANAENPAMNASEQSLAESIEETFHYRDSRVIVACVASNILRIQQVFDAAAKTGRKVCLTGKDLEKIVNTAMELGKLTFDADLLVTTDQLDDLAPNEIVILQTGKMGEPIKAIQRMANKQEKDFNIQAGDLVYITTTPSHAMDTTVAQTRDMVYRAGGEVKAISDELNSSGHAYKRDLQLMLNLMKPKFLIPIQGEYRLLNAHADAAMELGIPADHIFILSKGDVLTYAQGDMGLGEGIDVSDTMIDGIGVGDIGNIVLRDRKVLADDGIFIAVVTIDRKKKQIVADPKITSRGFVYVKANKDLMQESSQIIRKAVQNNLDNKEFDWGHLKQDVREHLSHYLFEQTHRRPVILPVIMEVNQHHRRTTKEKPGAGATNEKPVTKSAPKAKAEQTAKPTHKPRRNRKRRPTKKTTTDNA | failed
MTAWSLLHVGVFASVVMVVGWLWQRRSGNAGPVDVLWAGCLALAAPYCAWMADGALLPRALVAVLGGVWGARLALHLGVRVFGDPHEDGRYRALREHWNGSQGKFLGFFLAQAVVVVLFAVPFLAAASNPHAEWSAWTGIAIVVWLIAVGGEALADRQLSAHKANPANRGKTCRTGLWRYSRHPNYFFEFVHWFAYLALAVGAGPWPVALCALGPVVMFVFLYRFTGIPYTEQQALRSRGEDYAQYQRSTSAFFPLPPSS | failed
MSLQVEGLSINLATIREQCGFAEAVDICLKHGITAIAPWRDQVAAIGLGEAGRIVRANGLKLTGLCRGGFFPAPDASGREKAIDDNRRAVDEAAELGADCLVLVAGGLPGGSKNIDAARRMVVEGIAAVLPHARAAGVPLAIEPLHPMYAADRACVNTLGQALDICETLGPGVGVAIDVYHVWWDPDLANQIARAGKMKAILAHHICDWLVPTKDMLTDRGMMGDGVIDLKGIRRRIEAAGFHGAQEVEIFSADNWWKRPADEVIATCVERYRNEGHHHHHH | not failed
GSIPRVLISADRSSSGKTTISMGLMAALVSRGYKVQPFKVALDYIDPSYHTEITGRFCRNLDGYLMDEHGILDVYTHACETGGGADIAIIEGVRGLFEGFESLSDVGSTAQIAKILKCPVVFVINARSITRSAAALIGGYKNFDPDVEIAGVILNNIGGRRHAQKAKEAIEHYTGVPVLGIIPRDPSMQISMRHLGLMPALEGRRRFGDGGFENRLHGIEEIINKGIDVDRFLGIAESAKPLTALENSIFSPAVNENSQKPKIGVALDEAFNFYYRDNIDLLEIAGAEIVYFSPVNDPGLPEVDGLYIGGGYPELFAAELEANETMRKSIKEASAAGMPIYAECGGLMYLTEKISTGVPGKGTYHDASMPESTYSMVGALPGHTIMGQTRVVSYNIGTLARDCPIGKKGNSFKGHEFHHSEILEIPDDAEFAIALTRGTGIRGDRDGLIVNNTIGSYAHLHGVAYRELAGSLVEAARKFRDS | failed
MKRLFIASLLAFAPFTWALDQAGSQRLSDLQQRWAQIQYQMPKDKRADAFEKLAGDAATFVRQYPGTPEPLIWEGIINSSWAGATGGLGALGKVKAAKASLEQAMKLDPAALQGSAYTSLGTLYDQVPGWPIGFGDAEMADKMLRKALQINPNGIDSNYFWADHLYRQKRYPEATAALQKALQAPPRPGRELADQGRRADIDALLKTIKDKQD | failed
MMLGPEGGEGYVVKLRGLPWSCSIEDVQNFLSDCTIHDGVAGVHFIYTREGRQSGEAFVELESEDDVKLALKKDRESMGHRYIEVFKSHRTEMDWVLKHSGPNSA | not failed
